Numbering of substitutions follows the chain as printed.
T1: dCREB2-a (UniProt Q9VWW0)
T1 sequence: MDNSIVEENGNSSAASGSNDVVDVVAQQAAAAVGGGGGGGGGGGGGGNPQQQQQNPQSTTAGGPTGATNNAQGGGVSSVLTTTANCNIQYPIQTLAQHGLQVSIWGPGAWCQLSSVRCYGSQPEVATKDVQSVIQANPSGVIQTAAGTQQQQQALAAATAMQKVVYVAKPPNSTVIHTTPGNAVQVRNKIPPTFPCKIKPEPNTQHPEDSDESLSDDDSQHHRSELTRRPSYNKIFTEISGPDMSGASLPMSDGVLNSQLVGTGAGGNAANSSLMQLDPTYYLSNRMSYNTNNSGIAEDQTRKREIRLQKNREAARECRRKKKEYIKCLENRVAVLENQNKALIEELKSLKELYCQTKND

B1: dCREB2-b: Drosophila dCREB2 isoform lacking exons 2 and 6, antagonist of dCREB2-a, expressed from RSV-dCREB2-b (protein)
chain: MDNSIVEENGNSSAASGSNDVVDVVAQQAAAAVGGGGGGGGGGGGGNPQQQQQNPQSTTAGGPTGATNNAQGGGVSSVLTTTANCNIQYPIQTLAQHGLQVQSVIQANPSGVIQTAAGTQQQQQALAAATAMQKVVYVAKPPNSTVIHTTPGNAVQIPPTFPCKIKPEPNTQHPEDSDESLSDDDSQHHRSELTRRPSYNKIFTEISGPDMSDNSGIAEDQTRKREIRLQKNREAARECRRKKKEYIKCLENRVAVLENQNKALIEELKSLKELYCQTKND
B2: mLZ-dCREB2-b: leucine-zipper mutant of dCREB2-b; middle two leucines converted to valines (protein)
chain: B1 chain with L257V, L264V

How the values were obtained:
dCREB2-a = target: T1, dCREB2-a; assay: cell_activity; conditions: F9 cells; dCREB2-a plus PKA relative to PKA alone
[1] = test system: PKA-responsive transcription (CRE-directed reporter) in F9 cells; assay: PKA-responsive transcription from the CRE-containing D(-71) CAT reporter in transiently transfected F9 cells; assay type: cell-based; conditions: cotransfected with dCREB2-a, PKA and reporter
Experimental: Undifferentiated F9 cells were maintained and transfected using the calcium phosphate method as described in Darrow, A. L. et al., “Maintenance and Use of F9 Teratocarcinoma Cells”, In Meth. Enzymol., v. 190 (1990), except that chloroquine was added to […] immediately before transfection and precipitates were washed off ten hours after transfection, at which time the dishes received fresh chloroquine-free medium. Amounts of DNA in transfections were made equivalent by adding RSV-0 where required. Cells were harvested 30 hours after transfection. Extracts were made by three cycles of freeze/thawing, with brief vortexing between cycles. Particulate matter was cleared from extracts by ten minutes of centrifugation in the cold. β-galactosidase assays were performed as described in Miller, J. H., Experiments in Molecular Genetics, Cold Spring Harbor Laboratory, Cold Spring Harbor, N.Y., 1972. CAT assays were performed as described in Sheen, J. Y. and B. Seed, Gene, 67: 271-277 (1988) using aliquots of extract heat-treated at 65° C. for ten minutes and centrifuged for ten minutes to remove debris. Results reported are from three experiments run on different days with at least three dishes per condition within each experiment. Error bars represent standard error of the mean, with error propagation taken into account (Grossman, M. and H. W. Norton, J. Hered., 71: 295-297 (1980)).
F9 cells were transiently transfected with 10 μg of D(−71) CAT plasmid as a CRE-directed reporter. 5 μg of RSV-βgal reporter was included in each dish as a normalization control for transfection efficiency. Different groups received 8 μg of dCREB2-a expression vector and 4 μg of PKA expression vector, separately or in combination. Results are expressed as CAT/Pgal enzyme activity ratios, standardized to values obtained with PKA-transfected dishes. […]
Two different dCREB2 isoforms, dCREB2-a and dCREB2-b, have opposite roles in PKA-responsive transcription. […] CREB-dependent changes in gene expression were measured using a cotransfected construct that has a CRE-containing promoter fused to a reporter gene.

Row | Molecule | activity (dCREB2-a) | effect on PKA-dependent activation by dCREB2-a [1]
1 | D(-71) CAT rat somatostatin promoter CRE fragment | 5.4 fold | 
2 | B1 |  | nearly complete block
3 | B2 |  | failed to block
